The values below come from the supplement of paper PMC7125110.

± gives the standard error. Variants at the floor of the assay were thinned out.

Sequences and labels used below:
B1: glmS ribozyme (parent)
chain: AUAAAAGCGCCAGAACUACAGAAAUGUAGUUGACGAGGAGGAGGUUUAUCGAAUUUUCGGCGGAUGCCUCCAAA

What all share (conditions): with glucosamine-6-phosphate
In series [1] the parent is B1. The series is described as follows: self-cleavage kobs at 40 uM GlcN6P; higher = faster cleavage; RNA array. The gist of the method: (§1)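 Sequenced MiSeq chips were the platform: E. coli RNA polymerase transcribed barcoded ribozyme variants on them in situ, and a hybridised Cy3 probe tracked these at 37 °C. After glucosamine-6-phosphate (40 μM to 10 mM) in HEPES/KCl/Mg(OAc)2 buffer was flowed in, tiles were imaged over ~14 h. Signals normalised to baseline and to non-cleaving reference variants were reduced to per-tile medians and fit to one- or two-exponential decays to obtain kobs. kcat and KM were derived through weighted Michaelis–Menten fits across concentrations.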

In series [2] the parent is B1. The series is described as follows: self-cleavage kobs at 10000 uM GlcN6P; higher = faster cleavage; RNA array. The essentials: as §1
The variants in series [3] derive from B1. The series is described as follows: self-cleavage kobs at 640 uM GlcN6P; higher = faster cleavage; RNA array. The gist of the method: as §1
The variants in series [4] derive from B1. In words: self-cleavage kobs at 2500 uM GlcN6P; higher = faster cleavage; RNA array. The gist of the method:
as §1

Variants of B1 are the subject of series [5]. In words: self-cleavage kobs at 160 uM GlcN6P; higher = faster cleavage; RNA array. The essentials: as §1

Take A12U U45G U55C: the “self-cleavage kobs at 40 uM GlcN6P” value in the series with glucosamine-6-phosphate [1] is 0.000356 ± 7.4e-05 s⁻¹. The “self-cleavage kobs at 10000 uM GlcN6P” value with glucosamine-6-phosphate [2] is 0.00793 ± 0.002 s⁻¹.

With G60U U65G, the “self-cleavage kobs at 40 uM GlcN6P” value with glucosamine-6-phosphate [1] was below 1e-05 s⁻¹. Besides, the “self-cleavage kobs at 640 uM GlcN6P” value in the series with glucosamine-6-phosphate [3] was below 1e-05 s⁻¹. The “self-cleavage kobs at 2500 uM GlcN6P” value with glucosamine-6-phosphate [4] is below 1e-05 s⁻¹. Moreover, the “self-cleavage kobs at 10000 uM GlcN6P” value with glucosamine-6-phosphate [2] was below 1e-05 s⁻¹.

Regarding C11A G32U A42G, the “self-cleavage kobs at 40 uM GlcN6P” value with glucosamine-6-phosphate [1] was below 1e-05 s⁻¹.

As to A36G C71A, in the series with glucosamine-6-phosphate [1], the “self-cleavage kobs at 40 uM GlcN6P” value is below 1e-05 s⁻¹. In addition, the “self-cleavage kobs at 160 uM GlcN6P” value with glucosamine-6-phosphate [5] was below 1e-05 s⁻¹. For the same variant, the “self-cleavage kobs at 640 uM GlcN6P” value in the series with glucosamine-6-phosphate [3] was below 1e-05 s⁻¹. In addition, the “self-cleavage kobs at 2500 uM GlcN6P” value with glucosamine-6-phosphate [4] was below 1e-05 s⁻¹.

For the variant A14U G37A C50U G63C, in the series with glucosamine-6-phosphate [1], the “self-cleavage kobs at 40 uM GlcN6P” value is below 1e-05 s⁻¹.

On to A12C A39C C67G, for which, in the series with glucosamine-6-phosphate [1], the “self-cleavage kobs at 40 uM GlcN6P” value was below 1e-05 s⁻¹.

Consider A36U G59U, for which the “self-cleavage kobs at 40 uM GlcN6P” value in the series with glucosamine-6-phosphate [1] was below 1e-05 s⁻¹. For the same variant, the “self-cleavage kobs at 640 uM GlcN6P” value with glucosamine-6-phosphate [3] was below 1e-05 s⁻¹. Further, in the series with glucosamine-6-phosphate [2], the “self-cleavage kobs at 10000 uM GlcN6P” value is below 1e-05 s⁻¹.

For the variant A36U G59C, in the series with glucosamine-6-phosphate [1], the “self-cleavage kobs at 40 uM GlcN6P” value was below 1e-05 s⁻¹. The “self-cleavage kobs at 640 uM GlcN6P” value with glucosamine-6-phosphate [3] was below 1e-05 s⁻¹. Further, the “self-cleavage kobs at 10000 uM GlcN6P” value in the series with glucosamine-6-phosphate [2] was below 1e-05 s⁻¹.

Take A39U G40C G43U: in the series with glucosamine-6-phosphate [1], the “self-cleavage kobs at 40 uM GlcN6P” value is below 1e-05 s⁻¹. Moreover, the “self-cleavage kobs at 10000 uM GlcN6P” value with glucosamine-6-phosphate [2] was below 1e-05 s⁻¹.

Take A15U G40U G44A: in the series with glucosamine-6-phosphate [1], the “self-cleavage kobs at 40 uM GlcN6P” value is below 1e-05 s⁻¹. The “self-cleavage kobs at 10000 uM GlcN6P” value in the series with glucosamine-6-phosphate [2] was below 1e-05 s⁻¹.

For G7C C8G C50G U55A, in the series with glucosamine-6-phosphate [1], the “self-cleavage kobs at 40 uM GlcN6P” value was found to be 7.03e-05 ± 2.9e-05 s⁻¹.

For the variant A12C G43U C70A, the “self-cleavage kobs at 40 uM GlcN6P” value with glucosamine-6-phosphate [1] was below 1e-05 s⁻¹. Moreover, the “self-cleavage kobs at 10000 uM GlcN6P” value with glucosamine-6-phosphate [2] was below 1e-05 s⁻¹.

As to U54A G62U, the “self-cleavage kobs at 40 uM GlcN6P” value with glucosamine-6-phosphate [1] was below 1e-05 s⁻¹. Further, in the series with glucosamine-6-phosphate [4], the “self-cleavage kobs at 2500 uM GlcN6P” value is below 1e-05 s⁻¹. In the series with glucosamine-6-phosphate [2], the “self-cleavage kobs at 10000 uM GlcN6P” value was below 1e-05 s⁻¹.

For A33G U54G U65G, in the series with glucosamine-6-phosphate [1], the “self-cleavage kobs at 40 uM GlcN6P” value was below 1e-05 s⁻¹. In the series with glucosamine-6-phosphate [2], the “self-cleavage kobs at 10000 uM GlcN6P” value is below 1e-05 s⁻¹.

Take C10A A53G G60C: the “self-cleavage kobs at 40 uM GlcN6P” value with glucosamine-6-phosphate [1] was below 1e-05 s⁻¹.

With G44A C70U, the “self-cleavage kobs at 40 uM GlcN6P” value with glucosamine-6-phosphate [1] is below 1e-05 s⁻¹. The “self-cleavage kobs at 160 uM GlcN6P” value with glucosamine-6-phosphate [5] was below 1e-05 s⁻¹.

Regarding A15C A42C, the “self-cleavage kobs at 40 uM GlcN6P” value with glucosamine-6-phosphate [1] was below 1e-05 s⁻¹. For the same variant, the “self-cleavage kobs at 640 uM GlcN6P” value with glucosamine-6-phosphate [3] was below 1e-05 s⁻¹. In the series with glucosamine-6-phosphate [2], the “self-cleavage kobs at 10000 uM GlcN6P” value is below 1e-05 s⁻¹.

As to C8U G29A G60U, the “self-cleavage kobs at 40 uM GlcN6P” value with glucosamine-6-phosphate [1] is below 1e-05 s⁻¹. Also, in the series with glucosamine-6-phosphate [3], the “self-cleavage kobs at 640 uM GlcN6P” value is below 1e-05 s⁻¹. Further, the “self-cleavage kobs at 10000 uM GlcN6P” value with glucosamine-6-phosphate [2] was below 1e-05 s⁻¹.

Take C11G G44A: the “self-cleavage kobs at 40 uM GlcN6P” value with glucosamine-6-phosphate [1] is below 1e-05 s⁻¹. Moreover, the “self-cleavage kobs at 160 uM GlcN6P” value with glucosamine-6-phosphate [5] was below 1e-05 s⁻¹. For the same variant, the “self-cleavage kobs at 640 uM GlcN6P” value with glucosamine-6-phosphate [3] was below 1e-05 s⁻¹. The “self-cleavage kobs at 10000 uM GlcN6P” value with glucosamine-6-phosphate [2] was below 1e-05 s⁻¹.

For the variant G7U U46G, in the series with glucosamine-6-phosphate [1], the “self-cleavage kobs at 40 uM GlcN6P” value is below 1e-05 s⁻¹. In addition, the “self-cleavage kobs at 160 uM GlcN6P” value with glucosamine-6-phosphate [5] was below 1e-05 s⁻¹. Also, the “self-cleavage kobs at 640 uM GlcN6P” value with glucosamine-6-phosphate [3] was below 1e-05 s⁻¹. For the same variant, the “self-cleavage kobs at 2500 uM GlcN6P” value with glucosamine-6-phosphate [4] is below 1e-05 s⁻¹. The “self-cleavage kobs at 10000 uM GlcN6P” value in the series with glucosamine-6-phosphate [2] is below 1e-05 s⁻¹.

In the case of A14U A15G A33U A48U C50U G60C, the “self-cleavage kobs at 40 uM GlcN6P” value in the series with glucosamine-6-phosphate [1] is below 1e-05 s⁻¹.

Consider C8U G13U A39C, for which the “self-cleavage kobs at 40 uM GlcN6P” value with glucosamine-6-phosphate [1] was below 1e-05 s⁻¹.

C10U A39G C71A: the “self-cleavage kobs at 40 uM GlcN6P” value in the series with glucosamine-6-phosphate [1] is below 1e-05 s⁻¹.

In the case of C11G G37C, in the series with glucosamine-6-phosphate [1], the “self-cleavage kobs at 40 uM GlcN6P” value was below 1e-05 s⁻¹. In addition, in the series with glucosamine-6-phosphate [2], the “self-cleavage kobs at 10000 uM GlcN6P” value was below 1e-05 s⁻¹.

On to C8U U31G, for which, in the series with glucosamine-6-phosphate [1], the “self-cleavage kobs at 40 uM GlcN6P” value was below 1e-05 s⁻¹. In the series with glucosamine-6-phosphate [5], the “self-cleavage kobs at 160 uM GlcN6P” value was below 1e-05 s⁻¹. Besides, in the series with glucosamine-6-phosphate [3], the “self-cleavage kobs at 640 uM GlcN6P” value is below 1e-05 s⁻¹. The “self-cleavage kobs at 2500 uM GlcN6P” value in the series with glucosamine-6-phosphate [4] was below 1e-05 s⁻¹. For the same variant, the “self-cleavage kobs at 10000 uM GlcN6P” value with glucosamine-6-phosphate [2] was below 1e-05 s⁻¹.

As for G37C A39G, the “self-cleavage kobs at 40 uM GlcN6P” value with glucosamine-6-phosphate [1] was below 1e-05 s⁻¹. Further, the “self-cleavage kobs at 10000 uM GlcN6P” value in the series with glucosamine-6-phosphate [2] came to 3.63e-05 ± 7.3e-06 s⁻¹.

In the case of A15G A33G G41C, the “self-cleavage kobs at 40 uM GlcN6P” value with glucosamine-6-phosphate [1] is below 1e-05 s⁻¹. The “self-cleavage kobs at 10000 uM GlcN6P” value in the series with glucosamine-6-phosphate [2] is below 1e-05 s⁻¹.

With U49C C70A, the “self-cleavage kobs at 40 uM GlcN6P” value with glucosamine-6-phosphate [1] is below 1e-05 s⁻¹.
